We go through 167 variants from the RNAGym collection of RNA variant scans (doi:10.7554/elife.80360).

To fix the notation:
B1: HDV Ribozyme (parent)
chain: GGCCGGCAUGGUCCCAGCCUCCUCGCUGGCGCCGGCUGGGCAACAUUCCGAGGGGACCGUCCCCUCGGUAAUGGCGAAUGGGACCCA

The variants in this series derive from B1. The experiment in a line: self-cleavage, relative activity (ratio to wild type); higher = more cleavage; co-transcriptional.
As for G53C A83C, the self-cleavage worked out at 0.525.
To G38U U60A belongs 0.175; to G54A G73A, 0.394.
The value for G6A G40C was 0.232.
Turning to A8C C85G, the self-cleavage worked out at 0.798.
To U23C C49U belongs 0.852.
Consider U12A G34U, for which the self-cleavage amounted to 0.142.
To C30U A83U belongs 0.151; to U37A G40U, 0.157; to U9A G73C, 0.227.
With G76C A78C, the self-cleavage was 0.192.
To G1C U72G belongs 0; to G34C G54A, 0.166; to G6U G81U, 0.154.
The value for C49A A70U was 0.812; that for C57A G74A was 0.597; that for A8G G40U was 0.554.
With G10U U69C, the self-cleavage is 0.656.
The value for A78C G82A was 0.106.
As for C64A C84G, the self-cleavage is 0.536.
On to G5A A8U, for which the self-cleavage was 0.151.
The value for C57A C64A was 0.857; that for G73C G82A was 0.175.
Regarding C15U G40C, the self-cleavage was found to be 0.249.
To C14U C58G belongs 1.17; to C36G C57G, 0.162.
C14U C61A: the self-cleavage is 1.14.
The value for U12C G29A was 0.0415; that for G11C G40C was 0.0475.
The value for G2U G17U was 0.0366.
To C14A C18G belongs 0; to G11C U46A, 0.115.
Regarding C7G C32G, the self-cleavage is 0.115.
Take U37A U69A: the self-cleavage was determined as 0.101.
With G81A C85G, the self-cleavage worked out at 0.175.
The value for G25C G76U was 0.0852; that for C64A C85U was 0.72; that for U27G U60A was 0.914.
With C30U C48U, the self-cleavage came to 0.506.
For G6U G34A, the self-cleavage was determined as 0.208.
To A42U C49A belongs 0.53; to G25C G73U, 0.185; to C24A C86A, 0.607.
The value for G1A A56U was 0.217; that for G1A A56C was 0.107; that for U23G U46A was 0.712.
To C15A U60A belongs 0.623; to G6C G39A, 0.0405; to G53A C86G, 1.1.
With A8U A16C, the self-cleavage is 0.831.
The value for G1C U65G was 0; that for C63A C86A was 1.05; that for G50C C62G was 0.
To C57G G74U belongs 0.388.
To U23C C86G belongs 0.95.
For G31A A78U, the self-cleavage was determined as 0.175.
The value for U46A U79A was 0.504; that for C15G G31U was 0.135.
The value for C58A A78C was 0.108; that for C32G U72G was 0.0519; that for A45C C57A was 0.504.
Regarding C4G U65A, the self-cleavage stood at 0.525.
For the variant G5C C18A, the self-cleavage was 0.0639.
To U27A C84U belongs 0.795; to C49G C58U, 1.05; to G6A G11C, 0.222.
To G28A C64U belongs 0.117; to C21A C62U, 0.0519; to C13U C49G, 0.426.
To G11U U37C belongs 0.208.
On to G2U A70C, for which the self-cleavage turned out to be 0.0373.
To C21G A71C belongs 0.0449.
To G35U C44G belongs 0.0755; to G28U U46G, 0.
The value for C22A G74C was 0.146.
C21U G59U: the self-cleavage is 0.288.
Take G73A G74U: the self-cleavage worked out at 0.174.
Consider G2A G5C, for which the self-cleavage was determined as 0.0419.
Turning to C15U G80U, the self-cleavage amounted to 0.526.
As to U23A G29C, the self-cleavage amounted to 0.0923.
The value for G54A C75G was 0.185; that for C4G G54C was 0.213; that for U20A C41A was 0.0396.
As to G11A G76U, the self-cleavage stood at 0.623.
Take C4A U79A: the self-cleavage came out at 0.0739.
Turning to C49A G73C, the self-cleavage was determined as 0.293.
Turning to A56G G82U, the self-cleavage is 0.244.
With C19A C24G, the self-cleavage is 0.158.
To U9G C30U belongs 0.853; to G11C C64A, 0.629; to U27A C48G, 1.09.
Consider A43C G68C, for which the self-cleavage was found to be 0.283.
As to G25C C61G, the self-cleavage came to 0.175.
As for A71C C75G, the self-cleavage is 0.131.
C18A G28A: the self-cleavage was determined as 0.128.
With G25U G68C, the self-cleavage is 0.0791.
Regarding C62A G81A, the self-cleavage came out at 0.332.
To U20G G76C belongs 0.35.
To U60G A83G belongs 0.712; to C24A C33G, 0.142.
Turning to C21G U69C, the self-cleavage amounted to 0.104.
To G55U C61U belongs 0.859; to U12A A43C, 0.161.
To G35A G40C belongs 0.163; to G1U C58U, 0.401; to C14A G55U, 0.73.
In the case of U46C G52U, the self-cleavage was found to be 1.05.
As for U9A C15U, the self-cleavage was 1.02.
For the variant C7A G10A, the self-cleavage stood at 0.0831.
To G10C U27A belongs 0.939.
Turning to G54A C58G, the self-cleavage was 1.03.
G68C G73A: the self-cleavage worked out at 0.193.
As for G68U C84G, the self-cleavage was 0.525.
To C15G U60A belongs 0.185; to G68U G82A, 0.153; to C36A U69A, 0.0755.
C44A G53U: the self-cleavage worked out at 0.929.
For G11A C24A, the self-cleavage came out at 0.126.
As for C32U G68U, the self-cleavage worked out at 0.776.
To G29U C57G belongs 0.198.
G52C C75G: the self-cleavage turned out to be 0.104.
To C26A U69C belongs 0.988; to C15G G17A, 0.133; to G5U G17C, 0.
As for C41G C86A, the self-cleavage worked out at 1.14.
The value for G10C A83U was 0.465; that for G1C G73A was 0.201.
For the variant C19A G25C, the self-cleavage came out at 0.0386.
To A16U G68A belongs 1.09; to A43U C49A, 0.755; to C48G G73U, 0.506.
To G29U A51G belongs 0.0692; to U20G U69A, 0.
The value for C3G G67C was 0.524; that for G1C C84A was 0.166; that for U12C C32G was 0.
With U27A G31A, the self-cleavage worked out at 0.743.
To A8G A51U belongs 1.06; to U20A G55U, 0.0302.
To A16C C48G belongs 0.437.
Regarding G40U G73A, the self-cleavage came to 0.463.
For the variant G73A U79G, the self-cleavage amounted to 0.248.
For the variant G40U A51G, the self-cleavage was found to be 0.717.
As for G28U G68C, the self-cleavage amounted to 0.0733.
To G53C G59U belongs 0.967; to A56G G67C, 1.05; to G17U U46A, 0.111.
To G29U G55U belongs 0.0944; to C48G A51U, 1.02; to U20G C84U, 0.185.
The value for C24A U65A was 0.735; that for C3A C75U was 0.128; that for G38A A43C was 0.0449.
Regarding G74C A77C, the self-cleavage came out at 0.133.
In the case of G6C G67U, the self-cleavage was 0.268.
To C21U C30G belongs 0.107; to G2C G29A, 0.155.
To U27A C58U belongs 0.937; to U37A C62G, 0.151.
G54U C64G: the self-cleavage came to 0.831.
To C4G A43C belongs 0.0519.
As to G6U G59C, the self-cleavage turned out to be 0.475.
A71C G74C: the self-cleavage is 0.128.
The value for U20G C32U was 0.0519.
For the variant G38U A42U, the self-cleavage worked out at 0.261.
The value for G40A A83G was 0.573; that for A16C C85G was 0.95.
